Source: paper PMC9947421

Key:
Assay in all cases: AP-MS
[1] = target: transcriptional co-activator with PDZ-binding motif (TAZ) (UniProt Q9GZV5); details: read off a plot
[2] = target: VGLL4 (UniProt Q14135); details: read off a plot
[3] = target: DNA-dependent protein kinase, catalytic subunit (PRKDC/DNAPKcs) (UniProt P78527)
[4] = target: Rap1-interacting factor 1 (RIF1) (UniProt Q5UIP0)
[5] = target: poly(ADP-ribose) polymerase 1 (PARP1) (UniProt P09874)
[6] = target: Yes-associated protein (YAP) (UniProt P46937); details: read off a plot
[7] = target: X-ray repair cross-complementing protein 6 (XRCC6) (UniProt P12956); details: HEK293 cells

Sequence of UniProt P09874 (P09874 whole entry): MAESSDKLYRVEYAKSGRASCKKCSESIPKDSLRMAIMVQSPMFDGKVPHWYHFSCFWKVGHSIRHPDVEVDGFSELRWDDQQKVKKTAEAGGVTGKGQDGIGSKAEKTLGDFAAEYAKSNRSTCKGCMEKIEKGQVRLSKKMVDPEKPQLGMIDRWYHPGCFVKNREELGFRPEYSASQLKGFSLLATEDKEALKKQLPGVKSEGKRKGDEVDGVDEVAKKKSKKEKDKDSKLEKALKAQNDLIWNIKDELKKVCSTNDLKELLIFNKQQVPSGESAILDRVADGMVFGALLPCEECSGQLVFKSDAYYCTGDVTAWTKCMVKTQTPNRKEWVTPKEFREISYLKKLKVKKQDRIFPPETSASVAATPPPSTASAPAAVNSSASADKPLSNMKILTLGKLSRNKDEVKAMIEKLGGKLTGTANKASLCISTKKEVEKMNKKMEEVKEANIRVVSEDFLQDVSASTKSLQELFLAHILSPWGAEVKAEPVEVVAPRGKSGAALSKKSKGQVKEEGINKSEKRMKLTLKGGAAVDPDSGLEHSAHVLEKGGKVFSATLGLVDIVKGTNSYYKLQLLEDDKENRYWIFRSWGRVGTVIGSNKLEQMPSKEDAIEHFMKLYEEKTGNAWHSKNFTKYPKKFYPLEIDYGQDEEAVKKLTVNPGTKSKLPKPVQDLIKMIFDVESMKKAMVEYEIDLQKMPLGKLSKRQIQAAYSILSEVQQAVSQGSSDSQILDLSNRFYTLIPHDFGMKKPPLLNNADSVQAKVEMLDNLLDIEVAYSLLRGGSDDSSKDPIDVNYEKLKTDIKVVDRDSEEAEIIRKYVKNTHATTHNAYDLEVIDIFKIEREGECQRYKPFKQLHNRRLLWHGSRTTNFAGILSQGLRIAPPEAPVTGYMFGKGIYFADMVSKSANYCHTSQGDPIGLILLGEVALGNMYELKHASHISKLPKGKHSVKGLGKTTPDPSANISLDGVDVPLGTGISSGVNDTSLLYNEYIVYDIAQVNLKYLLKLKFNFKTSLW
Sequence of UniProt P78527 (P78527 whole entry): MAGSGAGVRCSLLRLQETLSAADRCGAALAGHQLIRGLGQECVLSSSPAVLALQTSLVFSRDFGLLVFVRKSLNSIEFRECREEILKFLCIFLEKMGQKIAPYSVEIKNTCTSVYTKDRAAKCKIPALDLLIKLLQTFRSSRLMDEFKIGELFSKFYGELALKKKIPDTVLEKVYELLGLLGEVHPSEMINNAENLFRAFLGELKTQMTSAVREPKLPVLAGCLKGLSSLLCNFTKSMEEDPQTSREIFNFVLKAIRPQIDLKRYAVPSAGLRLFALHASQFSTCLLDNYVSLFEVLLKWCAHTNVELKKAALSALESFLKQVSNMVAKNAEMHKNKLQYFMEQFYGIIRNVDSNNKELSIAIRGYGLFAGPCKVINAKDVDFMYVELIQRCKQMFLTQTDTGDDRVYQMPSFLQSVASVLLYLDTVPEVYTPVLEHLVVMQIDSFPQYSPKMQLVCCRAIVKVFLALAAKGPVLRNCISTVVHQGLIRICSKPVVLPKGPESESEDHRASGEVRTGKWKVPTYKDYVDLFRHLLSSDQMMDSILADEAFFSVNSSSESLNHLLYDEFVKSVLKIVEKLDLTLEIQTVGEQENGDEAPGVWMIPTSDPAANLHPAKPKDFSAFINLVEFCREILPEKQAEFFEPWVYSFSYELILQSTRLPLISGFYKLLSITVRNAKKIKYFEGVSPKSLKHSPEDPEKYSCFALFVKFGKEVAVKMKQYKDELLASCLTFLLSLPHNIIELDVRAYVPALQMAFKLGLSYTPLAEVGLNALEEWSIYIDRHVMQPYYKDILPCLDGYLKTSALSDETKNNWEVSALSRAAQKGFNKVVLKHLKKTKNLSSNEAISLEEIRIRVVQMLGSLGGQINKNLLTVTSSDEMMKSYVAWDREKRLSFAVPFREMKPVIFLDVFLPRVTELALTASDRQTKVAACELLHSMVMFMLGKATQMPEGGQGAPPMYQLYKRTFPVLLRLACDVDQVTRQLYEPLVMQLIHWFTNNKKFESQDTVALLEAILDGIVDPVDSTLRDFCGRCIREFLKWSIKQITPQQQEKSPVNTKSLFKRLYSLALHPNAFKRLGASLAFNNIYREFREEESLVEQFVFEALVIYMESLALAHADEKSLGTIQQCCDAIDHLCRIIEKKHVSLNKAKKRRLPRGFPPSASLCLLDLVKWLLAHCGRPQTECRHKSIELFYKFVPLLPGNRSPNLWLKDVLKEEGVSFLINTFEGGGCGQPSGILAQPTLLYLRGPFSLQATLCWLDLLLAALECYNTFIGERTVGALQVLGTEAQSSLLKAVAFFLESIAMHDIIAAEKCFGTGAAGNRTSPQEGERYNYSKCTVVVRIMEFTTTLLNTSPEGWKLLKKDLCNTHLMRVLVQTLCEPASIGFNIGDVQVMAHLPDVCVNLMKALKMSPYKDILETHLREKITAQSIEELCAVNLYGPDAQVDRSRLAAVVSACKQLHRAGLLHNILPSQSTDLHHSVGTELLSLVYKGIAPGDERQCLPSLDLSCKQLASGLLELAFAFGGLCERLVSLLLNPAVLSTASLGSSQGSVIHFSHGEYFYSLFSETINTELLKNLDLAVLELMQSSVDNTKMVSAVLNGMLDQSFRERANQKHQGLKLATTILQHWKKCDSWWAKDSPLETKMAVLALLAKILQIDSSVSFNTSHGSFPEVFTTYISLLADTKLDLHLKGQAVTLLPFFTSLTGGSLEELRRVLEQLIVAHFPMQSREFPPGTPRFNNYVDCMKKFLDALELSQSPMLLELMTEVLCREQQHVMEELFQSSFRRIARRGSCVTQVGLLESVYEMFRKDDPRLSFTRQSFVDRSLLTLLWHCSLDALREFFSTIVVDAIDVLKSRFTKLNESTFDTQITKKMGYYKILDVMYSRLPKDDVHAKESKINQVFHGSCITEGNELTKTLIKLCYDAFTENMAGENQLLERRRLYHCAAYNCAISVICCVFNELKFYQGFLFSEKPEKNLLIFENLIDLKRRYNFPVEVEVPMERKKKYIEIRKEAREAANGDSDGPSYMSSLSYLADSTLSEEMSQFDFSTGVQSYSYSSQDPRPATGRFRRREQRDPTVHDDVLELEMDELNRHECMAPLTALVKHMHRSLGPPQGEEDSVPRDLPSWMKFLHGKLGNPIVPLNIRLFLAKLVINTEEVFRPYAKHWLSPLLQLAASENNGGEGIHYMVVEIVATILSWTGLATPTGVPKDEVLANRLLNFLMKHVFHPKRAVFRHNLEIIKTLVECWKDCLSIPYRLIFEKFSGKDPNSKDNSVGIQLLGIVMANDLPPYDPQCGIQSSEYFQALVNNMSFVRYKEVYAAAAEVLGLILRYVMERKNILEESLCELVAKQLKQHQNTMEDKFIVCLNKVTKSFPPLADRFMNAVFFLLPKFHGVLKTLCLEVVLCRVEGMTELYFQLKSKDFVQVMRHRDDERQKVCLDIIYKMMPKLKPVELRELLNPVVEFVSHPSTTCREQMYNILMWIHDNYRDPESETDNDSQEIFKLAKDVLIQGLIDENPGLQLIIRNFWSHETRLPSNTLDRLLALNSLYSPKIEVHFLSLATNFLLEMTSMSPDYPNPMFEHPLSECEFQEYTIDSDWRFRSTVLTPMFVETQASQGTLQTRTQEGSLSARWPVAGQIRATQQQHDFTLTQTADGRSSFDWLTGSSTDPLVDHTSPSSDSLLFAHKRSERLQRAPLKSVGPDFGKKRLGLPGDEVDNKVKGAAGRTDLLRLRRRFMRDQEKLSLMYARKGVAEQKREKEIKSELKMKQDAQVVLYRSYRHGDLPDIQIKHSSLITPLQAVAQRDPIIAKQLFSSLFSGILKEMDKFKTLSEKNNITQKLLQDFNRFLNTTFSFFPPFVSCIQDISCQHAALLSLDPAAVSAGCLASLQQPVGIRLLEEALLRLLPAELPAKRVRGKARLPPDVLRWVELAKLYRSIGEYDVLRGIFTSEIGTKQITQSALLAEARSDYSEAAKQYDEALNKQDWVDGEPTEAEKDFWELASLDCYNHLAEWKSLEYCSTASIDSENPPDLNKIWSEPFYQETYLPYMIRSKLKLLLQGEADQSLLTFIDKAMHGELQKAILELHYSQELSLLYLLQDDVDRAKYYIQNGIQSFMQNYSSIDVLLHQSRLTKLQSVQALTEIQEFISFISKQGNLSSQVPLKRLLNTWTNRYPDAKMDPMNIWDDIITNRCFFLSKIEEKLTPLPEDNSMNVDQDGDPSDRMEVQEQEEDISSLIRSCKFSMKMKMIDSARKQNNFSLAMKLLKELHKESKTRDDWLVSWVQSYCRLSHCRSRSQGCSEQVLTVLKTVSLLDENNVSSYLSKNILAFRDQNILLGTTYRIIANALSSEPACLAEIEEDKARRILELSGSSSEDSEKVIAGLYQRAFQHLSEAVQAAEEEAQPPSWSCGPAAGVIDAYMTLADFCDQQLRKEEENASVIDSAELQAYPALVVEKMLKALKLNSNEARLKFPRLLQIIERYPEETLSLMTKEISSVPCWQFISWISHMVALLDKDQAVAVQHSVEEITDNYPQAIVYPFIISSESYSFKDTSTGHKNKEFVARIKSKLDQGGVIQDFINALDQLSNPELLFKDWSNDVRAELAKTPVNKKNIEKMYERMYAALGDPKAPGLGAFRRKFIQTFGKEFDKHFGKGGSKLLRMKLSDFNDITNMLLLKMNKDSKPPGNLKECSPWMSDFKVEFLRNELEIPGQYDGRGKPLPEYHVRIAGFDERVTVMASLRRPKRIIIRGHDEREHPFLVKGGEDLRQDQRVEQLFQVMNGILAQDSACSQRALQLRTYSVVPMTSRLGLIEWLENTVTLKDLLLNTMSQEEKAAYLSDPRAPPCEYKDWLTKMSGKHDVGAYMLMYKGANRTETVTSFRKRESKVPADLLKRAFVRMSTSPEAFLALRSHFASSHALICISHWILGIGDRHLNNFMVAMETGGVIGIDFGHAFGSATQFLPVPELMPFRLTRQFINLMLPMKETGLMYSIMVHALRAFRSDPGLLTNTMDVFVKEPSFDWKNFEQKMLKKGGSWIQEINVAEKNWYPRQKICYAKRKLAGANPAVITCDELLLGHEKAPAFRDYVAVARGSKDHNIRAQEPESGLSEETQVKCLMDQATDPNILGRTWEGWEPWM

“WT TEAD3-Myc/Flag (from UniProt Q99594) … -> … (R>N; K>N; R>N; K>N; K>N; V>N; R>N; residue numbers not printed)” showed a response (average sum PSMs) ([1]; Detroit 562 cells, parent: est. 170) of 250, a response (average sum PSMs) ([1]; HEK293 cells, parent: est. 23) of 22 and a response (average sum PSMs) ([2]; Detroit 562 cells, parent: est. 90) of 75. It also gave a response (average sum PSMs) ([2]; HEK293 cells, parent: est. 150) of 190, a response ([3]; Detroit 562 cells, replicate TEAD3 mut_1 (parent: TEAD3_WT_1), parent: 232) of 132 PSMs and a response ([3]; Detroit 562 cells, replicate TEAD3 mut_2 (parent: TEAD3_WT_2), parent: 898) of 496 PSMs. The response ([3]; Detroit 562 cells, replicate TEAD3 mut_3 (parent: TEAD3_WT_3), parent: 658) was 396 PSMs, the response ([3]; HEK293 cells, replicate TEAD3 mut_1 (parent: TEAD3_WT_1), parent: 258) was 167 PSMs and the response ([3]; HEK293 cells, replicate TEAD3 mut_2 (parent: TEAD3_WT_2), parent: 223) was 195 PSMs. For the same substance, the response ([3]; HEK293 cells, replicate TEAD3 mut_3 (parent: TEAD3_WT_3), parent: 216) was 230 PSMs, the response ([4]; Detroit 562 cells, replicate TEAD3 mut_1 (parent: TEAD3_WT_1), parent: 302) was 118 PSMs and the response ([4]; Detroit 562 cells, replicate TEAD3 mut_2 (parent: TEAD3_WT_2), parent: 297) was 45 PSMs. The response ([4]; Detroit 562 cells, replicate TEAD3 mut_3 (parent: TEAD3_WT_3), parent: 331) was 26 PSMs, the response ([4]; HEK293 cells, replicate TEAD3 mut_1) was 2 PSMs and the response ([4]; HEK293 cells, replicate TEAD3 mut_2 (parent: TEAD3_WT_2), parent: 3) was 1 PSMs. It also gave a response ([5]; Detroit 562 cells, replicate TEAD3 mut_1 (parent: TEAD3_WT_1), parent: 90) of 6 PSMs, a response ([5]; Detroit 562 cells, replicate TEAD3 mut_2 (parent: TEAD3_WT_2), parent: 76) of 5 PSMs and a response ([5]; Detroit 562 cells, replicate TEAD3 mut_3 (parent: TEAD3_WT_3), parent: 87) of 8 PSMs. The response ([5]; HEK293 cells, replicate TEAD3 mut_1 (parent: TEAD3_WT_1), parent: 380) was 1 PSMs, the response ([5]; HEK293 cells, replicate TEAD3 mut_2 (parent: TEAD3_WT_2), parent: 624) was 3 PSMs and the response ([5]; HEK293 cells, replicate TEAD3 mut_3 (parent: TEAD3_WT_3), parent: 950) was 4 PSMs. The response (average sum PSMs) ([6]; Detroit 562 cells, parent: est. 620) was 960, the response (average sum PSMs) ([6]; HEK293 cells, parent: est. 200) was 230 and the response ([7]; replicate TEAD3 mut_1 (parent: TEAD3_WT_1), parent: 56) was 1 PSMs. For the same substance, the response ([7]; replicate TEAD3 mut_3 (parent: TEAD3_WT_3), parent: 92) was 1 PSMs.
